To fix the notation:
B1: Hairpin Ribozyme (parent)
chain: GUCCUCUUUCACGUGCGCGUGAAAGAGAGAAGUGAACCAGAGAAACACACGUUGUGGUAUAUUACCUGGUA

The variants in the data set derive from B1. The data set is described as follows: self-cleavage, relative activity (ratio to wild type); higher = more cleavage; co-transcriptional.
For the variant GUCCUUUUACACGUGCGCGUGAAAGAGAGAAGUGAACCAGAGAAACACACGUUGUGGUAUAUUACCUGGUA [C6U U9A], the self-cleavage is 0.517. Under GUCCUCAUUCACGUGCGCGUGAAAGAGAGAAGUGAACCAGCGAAACACACGUUGUGGUAUAUUACCUGGUA [U7A A41C] stands 1.3. Consider GUCCUUUUUCACGUGCGCGUGAAAGAGAGAAGUGAACCAGAGAAACACACCUUGUGGUAUAUUACCUGGUA [C6U G51C], for which the self-cleavage was 0.823. On to GUCCUUUUUCACGUGCGCGUGAAAGAGAGAAGUGAACCAGAGAAACACACGUUGUGCUAUAUUACCUGGUA [C6U G57C], for which the self-cleavage is 0.135. Regarding GUCCUCAUUCACGUGCGCGUGAACGAGAGAAGUGAACCAGAGAAACACACGUUGUGGUAUAUUACCUGGUA [U7A A24C], the self-cleavage was 1.02. As for GUCCUUUUUCACGUGCGCGUGAAAGAGAGAAGCGAACCAGAGAAACACACGUUGUGGUAUAUUACCUGGUA [C6U U33C], the self-cleavage amounted to 0.135. With GUCCUCAUUCACGUGCGCGUGAUAGAGAGAAGUGAACCAGAGAAACACACGUUGUGGUAUAUUACCUGGUA [U7A A23U], the self-cleavage was 0.791.

Turning to GUCCUUUGUCACGUGCGCGUGAAAGAGAGAAGUGAACCAGAGAAACACACGUUGUGGUAUAUUACCUGGUA [C6U U8G], the self-cleavage came out at 0.431. In the case of GUCCUUUAUCACGUGCGCGUGAAAGAGAGAAGUGAACCAGAGAAACACACGUUGUGGUAUAUUACCUGGUA [C6U U8A], the self-cleavage came out at 0.538. Under GUCCUCAUUCACGUGCGCGUGAAAGAGAGAAGUGUACCAGAGAAACACACGUUGUGGUAUAUUACCUGGUA [U7A A35U] stands 0.714. As for GUCCUCAUUCACGUGCGCGUGAAAGAGAGAAGUGAACCAGAGAAACACACGUUAUGGUAUAUUACCUGGUA [U7A G54A], the self-cleavage was determined as 0.535. Regarding GUCCUUUUUCACGUGCGCGGGAAAGAGAGAAGUGAACCAGAGAAACACACGUUGUGGUAUAUUACCUGGUA [C6U U20G], the self-cleavage amounted to 0.637.

With GUCCUUUUUCACGUGCGCGUGAAAGAGAGAAGUGAACCAGAGAAACACACGUUGUGGUACAUUACCUGGUA [C6U U60C], the self-cleavage was 0.794. In the case of GUCCUCAUUCACGUGCGCGUGAAAGAGAGAAGUGAACCAGAGCAACACACGUUGUGGUAUAUUACCUGGUA [U7A A43C], the self-cleavage is 0.186. In the case of GUCCUCAUUCACGUGCGCGUGAAAGAGAGAAGUGAACCAGAGAAACACACGUUGUGGUAUAUUAACUGGUA [U7A C65A], the self-cleavage turned out to be 0.876. Take GUCCUCAUUCACGUGCGCGUGAAAGAGAGAAGUGAACCAGAGAAACACACGUUGUGGUAUAUUAUCUGGUA [U7A C65U]: the self-cleavage came to 0.349. Regarding GUCCUCAUUCACGUGCGCGUGAAAGAGAGGAGUGAACCAGAGAAACACACGUUGUGGUAUAUUACCUGGUA [U7A A30G], the self-cleavage turned out to be 0.305. Regarding GUCCUCAUUCACGUGCGCGUGAAAGAGAGAAGUGAACCAGAGACACACACGUUGUGGUAUAUUACCUGGUA [U7A A44C], the self-cleavage amounted to 0.177. Then GUCCUUUUUCACGUGCGCGUGAAAGAGAGAAGUGAACCAGAGAAACACACGUUGUGGUAUAAUACCUGGUA [C6U U62A], with 0.266; and GUCCUCAUUCACGUGCGAGUGAAAGAGAGAAGUGAACCAGAGAAACACACGUUGUGGUAUAUUACCUGGUA [U7A C18A], with 1.12. For the variant GUCCUCAUUCACGUGCGCGUGAAAGAGAGAAGUGAACCAGAGAAACACACGUUGUGGUAUAUUACAUGGUA [U7A C66A], the self-cleavage is 0.269. Consider GUCCUCAUUCACGUGCGCGUGAAAGAGAGAAGUGAACCAGAGAAACACACGUUGUGGUAUAUUACUUGGUA [U7A C66U], for which the self-cleavage was 0.461. With GUCCUCAUUCACGUGCUCGUGAAAGAGAGAAGUGAACCAGAGAAACACACGUUGUGGUAUAUUACCUGGUA [U7A G17U], the self-cleavage amounted to 0.89. On to GUCCUUUUUCACGUGCGCGUGAAAGAGAGAAGUGAACCAGAGAAACACACGUUGAGGUAUAUUACCUGGUA [C6U U55A], for which the self-cleavage came out at 0.217.

GUCCUUUUUCACGUGCGCGUGAAAGAGAGAAGUGAACCAGAGAAACACACGUUGCGGUAUAUUACCUGGUA [C6U U55C]: the self-cleavage is 0.183. Then GUCCUUUUUCACGUGCGCGUGAAAGAGAGAAGUGAACCAGAGAAACACACGUUGGGGUAUAUUACCUGGUA [C6U U55G], with 0.375; and GUCCUCAUUCACGUGCGCGUGAAAGAGAGAAGUGAACCUGAGAAACACACGUUGUGGUAUAUUACCUGGUA [U7A A39U], with 0.546. GUCCUCAUUCACGUGCGCGUGAAAGAGAGAAGUGAACCAGAGAAACACACGUUGUGGUAUAUUACCUGGUA [U7A]: the self-cleavage came out at 0.92. GUCCUCAUUCACGUGCGCGUGAAAGAGAGAAGUGAACCAGAGAAACACACGUUGUGUUAUAUUACCUGGUA [U7A G57U]: the self-cleavage was found to be 0.253. Under GUCCUCAUUCACGUGCGCGUGAAAGAGAGAAGUGAACCAGAGAAACACACGUUGUGGUUUAUUACCUGGUA [U7A A59U] stands 0.182; under GUCCUUUUUCACGUGCGCGUGAAAGAGAGAAGUGAACCAGAGAAACACACGCUGUGGUAUAUUACCUGGUA [C6U U52C], 0.773. In the case of GUCCUUUUUCACGUGCGCGUGAAAGAGAGAAGUGAACCAGAGAAACACACGAUGUGGUAUAUUACCUGGUA [C6U U52A], the self-cleavage amounted to 0.965.

Turning to GUCCUCAUUCAUGUGCGCGUGAAAGAGAGAAGUGAACCAGAGAAACACACGUUGUGGUAUAUUACCUGGUA [U7A C12U], the self-cleavage stood at 0.797. With GUCCUCAUUCAAGUGCGCGUGAAAGAGAGAAGUGAACCAGAGAAACACACGUUGUGGUAUAUUACCUGGUA [U7A C12A], the self-cleavage amounted to 0.549. Turning to GUCCUCAUUCACGUGCGCGUGAAAGAGAGAAGUUAACCAGAGAAACACACGUUGUGGUAUAUUACCUGGUA [U7A G34U], the self-cleavage came to 1.4.

Take GUCCUCAUUCACGUGCGCGUGAAAGAGAGAAGUCAACCAGAGAAACACACGUUGUGGUAUAUUACCUGGUA [U7A G34C]: the self-cleavage was determined as 1.36. With GUCCUUGUUCACGUGCGCGUGAAAGAGAGAAGUGAACCAGAGAAACACACGUUGUGGUAUAUUACCUGGUA [C6U U7G], the self-cleavage stood at 0.449. On to GUCCUCAUUCACGUGCGCGUGAAAGAGAGAAGUGAACAAGAGAAACACACGUUGUGGUAUAUUACCUGGUA [U7A C38A], for which the self-cleavage worked out at 0.28.

These data come from the RNAGym collection of RNA variant scans (doi:10.7554/elife.80360).
